Experiment: yeast display, Sf9 membrane polyspecificity reagent, FACS + sequencing; frameworks hold sequencing errors
Procedure, shortened: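 Sorting gates, low and high (top ~1%), were placed on anti-HA fluorescence to track expression and on streptavidin fluorescence to track reagent binding. A clone's polyreactivity label is taken from the gate it came out of. The reagent was 10% biotinylated, detergent-solubilized Sf9 membrane, applied for 1 hour at 4 °C to galactose-induced yeast display cells.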

Row | Sequence | polyreactivity (PSR sort gate)
1 | QVQLVESGGGLVQAGGSLRLSCAASGNIFPRYAMGWYRQAPGKERELVARISSGGSTDYADSVKGRFTISRDNAKNTVYLQMNSLKPEDTAVYYCAAEYYSQTVNYRRVVGYGYWGQGTQVTVSS | high polyreactivity
2 | QDQLVESGGGLVQAGVSLRLSCPASGNIFNGKAMGWYRQAPGKERELVAAISSGGGSTYYADSVKGRFTISRDNAMNTVYLQMNSLKPEDTAVYYCAASRVRYSYGYPYYYWGQGTQVTVSS | high polyreactivity
3 | QVQLQESGGGLVQVGGSQRLSCAASGNNFYNYAMGWYRHAQGKEREFDATINHGTSINYADSVKGRFTISRDNAKNTVYLQMNSLKPEDTAVYYCAADLSWTDNLFYWGQGTQVTVSS | low polyreactivity
4 | QVQLVESGGGLVQAGASLRLSCAASGRIFPTYAMGWYRQAPGKEMEFVAAISRSGGRTYYADSVKGRFTISRDHAKNTVYLQMNSLKPEDTAVYYCNAEGDPYVDFPSRSTGYDYWGQGTQVTVSS | high polyreactivity
5 | QVQLVESGGGLVQAGRSLRLSCAASGNTFWFYGMGWYRQAPGKVRELVAAITSGGSTDYADSVKGRFTISRENAKNTVSLQMNSLKPEDTAVYYCAAEPVAYYGSSYGYWGQGTQVTVSS | low polyreactivity
6 | QVQLVESGGGLVQAGGSLRLSCAASGRIFYRYGMGWYRQAPGKERELVASITRGGSTYYADSVKGRFTISRDNAKNTVYLQMNSLKPEDTAVYYCATKSSAGYDYWGQGTQVTVSS | low polyreactivity
7 | QVQLGESGGGLVQAGGSLRLSCAASGFTFTRYAMGWYRQAPGKERELVAAIRWSGGRTYFADSVKGRFTISRDNAKNTVYLEMNRLKPEDTAVYYCNAVFYDPRREYDYWGQGTQVTVSS | high polyreactivity
8 | QVQLVESGGGLVQAGGSLRLSCAASGSTFYNNAMGWYRQAPGKERESVAAITASGGRTYYADSVKGRFTISRDNAKNTVYLQMNSLKPEDTAVYYCAARGFDRYYWGQGTQVTVSS | high polyreactivity
9 | QVQLVESGGGLVQAGGSLRLSCAASGRTFGINAMGWYRQAPGKERELVAVISFADGGTYYADSVKGRFTISRDNAKNTVYLQMNSLKPEDTAVYYCATDYQSTSVWGGHFVINPYDYWGLGTQVTVSS | low polyreactivity
10 | QVQLVESVVGLVQAGGSLRLSSAASGGTFDLYAMGWYRQAPGKERELVAAISRRGSSTYYADSVKGRFTISRDNAKNTVYLQMTSLKPEDTAVYFCNNRYYWHGINEYWGQGTQVTVSS | high polyreactivity
11 | QVQLVESGGGLVQAGGSLRLSCAASGRIFWVNAMGWYRQAPGKERELVARIRGRSGSTYYADSVKGRFTISRDNAKNTVYLQMHSLKPEDTAVYYCNADFNRKVAGTPEVDYWGQGTQVTVSS | high polyreactivity
12 | QVQLVESGGGIVQAGGSLRLSCAASGSTFSYNAMGWYRQAPGKERELVAAISRGGITNYADSVKGRFTISRDNAKNTVYLQMNSLKPEDTAVYYCNAGYLGGPSYEYWGQGTQVTVSS | low polyreactivity
13 | QVQLVESGGGLVQAGGSLRLSCAASGSIFPDYDMGWYRQAPGKERELVAAISSSGDSTYYADSVKGRFTISRDIAKNTVYLQMNSLKPEDTAVYYCAVDGTRSTSNGSEFTGYNYWGQGTQVTVSS | low polyreactivity
14 | QVQLVESGGGLVQAGGSLRLSCAASGRTLYDYAMEWYRQAPGKERELVAGITSGDSTYYADSVKGRFTISRDNAKNTVDLQMNSLKPEDTAVYYCAADSDTFYYTGYDYDYWGQGTQGTVSS | low polyreactivity
15 | QVQLVESGGGLVQAGGSLRLSCAASGSTFYDYAMGWYRQAPGKERELVAAMSSSGARTYYADSVKGRFTISRDNAKNSVYLQMNSLKPEDTAVYYCGAKPHTRTTCPSGYWGQATQVTVSS | high polyreactivity
16 | QVQLVESGGGLVQAGGSLRLSCAASGRIFGPYTMAWYRQAPRKERELVAAISRRGGSTYYADSVKGRFTISRDNAKNTVYLQMTSLKPEDTAVYYCAAKIYFLAILYDYWGQGTQVTVSS | high polyreactivity
17 | QVQLEESGGGLVQAGGTLRLSCAASVGIFNYYTMGWYREAPGKERELVAAITRGGSTYYADSVKGRFTISRDNAKNTVYLQMNSLKPEDTAVYYCAAVWRRYDKSPLEGSWGQGTQVTLSS | high polyreactivity
18 | QDQLVESGGGLVQAGCSLRLSCAASGSTFRTYAMGWYRQAPGKERDLVAAIRRGGSTKYADSVKGRFTISRDNAKYTVYLQINSLIPEDTELYYCAAVTYVPRSTNGISLYDYWGQGTQVTVSS | high polyreactivity
19 | QVQLVESGGGLVQAGGSLRLSCAASGHSFFYYTMGWYRQAPGKERELVAGITIGGSTNYADSVKGRFTISRDNAKNTVYLQMNSLKPEETAVYYCKKRYVVSRKYDYWGQGTQVTVSS | low polyreactivity
20 | QVQLVESGGGLVQAGGSLRLSCAASGYIFGHYTMGWYRPAPGKEGELVAGITRGTRTYYADSVKGRFTISRDNAKNTVYLQMNSLKPEDTAVYYCAKRGPVRTQYTYYYWGQGTQVTVSS | high polyreactivity

Row | Sequence | polyreactivity (PSR sort gate)
21 | QVQLVESGGGLVQAGGSLRLSCAASGIIFGWYAMGWYRQAPGTERELVADISSDDSTYYADSVKGRFTISRDNAKNTVYLQMNSLKPEDTAVYDCAAETEYYSYRFDYWGQGTQVTVSS | high polyreactivity
22 | QVQLVESGGGLVQAGGSLRLSCAASGSTFDYNAMGWYRQAPGKERELVAAISWRGGGTYYADSVKGRFTISRDNAKNTVYLQMNSLKPEDTAVYYCNTVSRNGFYRSRHDYWGQGTQVTVSS | low polyreactivity
23 | QVQLVESGGGLVQAGGSLRLSCAASGRTFKCYAMGWYRQAPGKETELVAAISYRGGSTYYADSVKGRFTISRDNAKNTVYLQIKRLKPEDTAVYYCAARWNRGRYDYWGQGTQVTESS | high polyreactivity
24 | PVQLVDSGGGLVQAGGSLRLSCAASGSIFYRNALGWYRQAPGKERELVAAISGRGGSTNYADSVKGRFTISRDNAKNTVYLQMNSLKPEDTAVYYCNRYGVANILVRGGYWGQGTQVTVSA | high polyreactivity
25 | QVQLVESGGGLVQAGGSLRLSCAASGFTFIYYALGWYRQAPGKERELLATISYDGGSTYYSDSVKGRFTISRDNAKNTVYLQMNSLKPEDTAVYYCNADFADDKYYLFESELEYDYWGQGTQVTVSS | low polyreactivity
26 | QVQLVESGGGLVQAGGSLRLSCAASGRIFFYYAMGWYRQAPGKERELVAAISQSGGSSYYADSVKGRFTISRDNAKNTVYLQLTSLKPEDTAVYYCAADDRYYTYGYDYWGQGTQVTVSS | low polyreactivity
27 | QVQLVESGGGLVQAGGSLRLSCAASGSIFWPYAMGWYRQAPGKEREFVDAITWSGGSTYYADSVKGRFTISRDNAKNTVYLQMNSLKPEDTAVYYCAAVPYTRWKGADGDYWGQGTQVTVSS | high polyreactivity
28 | QVQLVESGGGLVQAGGSLRLSCAASGSTSSNNAMGWYRQAPGKERELVADISTNGDSTSYADSVKGRFTISRDNAKNTVYLQMNSLKPEDTAVYYCAASTYVTYWEYDFWGQGTQVTVSS | low polyreactivity
29 | QVQLVESGGGLVQAGGSLRLSCAASGTFYWNVMGWYRQAPGKEREFVASITLSGTSTYYADSVKVRFTISRDNAKNTVYLQMNSLKPEDTAVYYCAVAARWPAPVPHYYYWGQGTQVTVSS | low polyreactivity
30 | QVQLVESGGGLVQAGGSLRLSCAASGSIFVYYAMGWYRQAPGKERELVAAINSSGGRTYYADSVKGRFTISRDNAKNTVYLQMNSLKPEETAVYYCAAVYRYWTSYNGRNYWGQGTQVTVSS | high polyreactivity
31 | QVQLVESGGGLVQEGGSLRLSCAASGSTFERNAMGWYRQAPGKERELVAAISAIGDSTYYADSVKGRFTISRDNAKNTVYLQMKSLNPEDTAVYYCAARYTRYHIGRGYYYWGQGTQVTVSS | high polyreactivity
32 | QVQLVESGGGLVQAGGSLRLSCAASGRIFRAYAMGWYRQAPGKERELVAAIRGRGGSTYADSVKGRFTISRDNAKNTVYLQMNSLKPEDTAVYYCAAGYYRYAWPYYGGRDYWGQGTQVTVSS | high polyreactivity
33 | QVQLVESVGGLVKAGGSLRLSCAASGRTFYNAMGWYRQAPGKERELVAAISSDGSTYYADSVKGRFTISRDNAKNTVYLQMNSLKPEDTAVYYCARDLGSWYYQVRFGYWGQGTQVTVSS | high polyreactivity
34 | QVQLVESRGCLVQAGGSLRLSCAASGSTFYPYAMGWYRQAPGKERELVAGITVIDGSTYYADSVKGRFTISRDNAKNTVYLQMNSLKPEDTAVYYCAFDAPNQVQEYGYWGQGTQVTVSS | low polyreactivity
35 | QVQLVESGGGLVQAGGSLRLSCAASGRTFLWYAMGWYRQAPGKEREFVAAITKSSGSTYYADSVKGRFTISRDNAKNTVFLQMNSLKPEDNAVYYCAKRPFSTRYDYWGQVTQVTVSS | high polyreactivity
36 | QVQIVESGGGFVQAGGSLRLSCAASGRIYGNTMGWYRQAHGKERELVAAITRSGVSTYYADSVKGRFTISRDNAKNTVYLQMNSLKPDDTAVYYCAAREWSGPKINPPYRYNSWGQGTQETVSS | high polyreactivity
37 | QVQLVESGGGLVQAGGSLRLSCAASARIFVPYARGWYRQAPGKERELVAAIRKSGGSTYYADSVKGRFTISRDNAKNTVYLQMNSLKPDVTAVYYCAASTLGMVQTQPGKRKTYLYGYWGQGTQVTVSS | high polyreactivity
38 | QDQLVESGGGLVQAGGSLRLSCAASGFIFGTYAMGWYRQAPGKEREFVAAINWGGGRTYYADSVKGRFTISRDNAKNTVYLQMNSLKPEDTAVYYCAADFGLYYPRYGYWGQGTQVTVSS | high polyreactivity
39 | QVQLVESGGGLVQAGGSLRLSCAASGRIFPANAMGWYRQAPGKERELVAAIDYDGGSTYYADSVKGRFTISRDNAKNTVYLQMNSLKPEDTAVYYCAADFYDYEGSYYDYYWGQGTQVTVSS | high polyreactivity
40 | QVQLVESGGGLVQAGGSLRLSCAASGRTFKKYALGWYRQAPGKEREVVAAITSRVRSTSYADSVKGRFTISRDNAKNTVYLQMNSLIPEDTAVYYCAARYSVGNGYGYWGQVTQVTVSS | high polyreactivity
